In the DeepSol protein solubility set:

Assay: soluble on expression in E. coli; label from the status in PepcDB or PDB records

Sequence | soluble on expression in E. coli
MSLGNARMYEALRDYGDRFDTVGIFTFEVDETGTITETGTSISSMLPYIQKWPHIKWLLTIMNHGIANIFTALRNNENGAKDKFLTEIIRIMNKYPWCAGVDIDLERGGGYENKDAANALFRDIYNTVKSYDATKLVNICLPGMIGVQGSVGGENWCVYADLNDYCDTAAIMSYGMAWAGSAPGPVSPRDWLEGIYDYAVSVMSPDKIFMGLPAYGWNWRIHDTPENLGITYRGVSNTYYAAKYWMTGVYNFTGDAPPQPFIPIVAYWDDYNKVPWALPHVYDYMEGWDAVSWEYPLLKGVYNRRRYLTSYGKEQKAEFGTIYIDRNGVPDEYEGNVIITDEMTSLGDAQASAEYRFEIREAGYYDIAVQLCFPYWDKNAIIVSLDGISKTFSENRLWWPYWRRVCWLTLAKGVFLQEGTHAISISGGVPGVQFYGFRVCSGFSEYPFAGEASFMLSPRRFKDVNGVMVEPDRGFKLTFEMLRRKPDSALIWYEDFRDRNILPENYWTVLDGEWDVWQDPDSTENRPYSQLEGYGKLAWKYDGFSDIHIRARLAFPQNSSGRAGVFLGDIFCCLNYDTQRVELYQGNSLLGSYSTSFSKTVDADLRANPNMYTIEMRKRGNKVRVYSGAASTLRFTVNVTGGSGYVGYCSDNRTVCELLRLGDAWVYEPYERFDVELPDGNITSFGRLARTGVTWDDEFQVFSVNNDVEESITRSEDISMDYDFFHSQLLALSCGNDYEVKIILKDINIWISRLFLGDADGFSILYYQDVDSLVYWANEAAYRWKLRGIAIWSLGQEDMRLWEALPKQEGHHHHHH | soluble
MSLGNNYAAKVNDQEISRGQFENAFNSERNRMQQQLGDQYSELAANEGYMKTLRQQVLNRLIDEALLDQYARELKLGISDEQVKQAIFATPAFQVDGKFDNSRYNGILNQMGMTADQYAQALRNQLTTQQLINGVAGTDFMLKGETDELAALVAQQRVVREATIDVNALAAKQPVTEQEIASYYEQNKNNFMTPEQFRVSYIKLVAATMQQPVSDADIQSYYDQHQDQFTQPQRTRYSIIQTKTEDEAKAVLDELNKGGDFAALAKEKSADIISARNGGDMGWLEDATIPDELKNAGLKEKGQLSGVIKSSVGFLIVRLDDIQPAKVKSLDEVRDDIAAKVKHEKALDAYYALQQKVSDAASNDTESLAGAEQAAGVKATQTGWFSKDNLPEELNFKPVADAIFNGGLVGENGASGINSDIITVDGDRAFVLRVSEHKPEAVKPLADVQEQVKALVQHNKAEQQAKVDAEKLLVDLKAGKGAEAMQAAGLKFGEPKTLSRSGRDPISQAAFALPLPAKDKPSYGMATDMQGNVVLLALDEVKQGSMPEDQKKAMVQGITQNNAQIVFEALMSNLRKEAKIKIGDALEQQEGHHHHHH | soluble
MSLGNPAAMLAAYNTSTQVAPQPQLGPRAGEVQLSSEQQAMIDYVLAGKDVIVDATVGSGKTTAIQRLCSIMGADHDVLYLTYSKLLKVDAQQRVRGAKVQNYHGIVYPHLLKAGIKCGISESIREFNKNFKHISRTFPSYDLLVIDEYQDINEDYAELLRNIKSVNPLMQIVMVGDLEQKVRSDTEGHHHHHH | not soluble
MSLGNSAGFGSVGDNSSGGSGANRDANNRPSWFQETARRTIPNTVLRREVKSSSNSGEDDNGNRGDSTSTGFNTLTFGAKKHMLLGSSNVSTGGNDHMNPLLMDNSEAPPTVSISDWKREEGLFDLRNTRNENTINTIGTPTFISPISREKSEVSLFDSNSQSRSSSASSIGSESETGNAVVVFGYREAITKQILAYFAQFGEILEDLESELGDTETMRTPGYFFQQAPNRRRISREHGRTWTKLTYANHSSYLRALREHGTIYCGAAIGCVPYKHELISELSRDTYNSMNDVKQTNSISTNQLTQHNQSEVPKSNQTFETKPTNETERNQIKTPSAFGSDNKGNGSISSGRTKRRLSIKDGSSLFLSGTEGHHHHHH | soluble
MSLGPYYINTHFLYGSEEKANKLLEFIDKEKENILKCPDRILEETMKNYQSDPIYRGLIDEMCDFIKNNIDVNEVDYISGGERRDWFFSPIIAKLLNKPHITIYKDLTTVVSSDGKTEELKELNGESVLHIADLITEASSYERAWIPAIKNNGGRIKWSVVVVDRKQGGAELLKSYDIKSFSMVDIDIGLFKRVLDMGLIDRGQFEMIEQYILDPKESMAKFLRKNEGHHHHHH | not soluble
MSLGSFTDVPANSQFYTEISWLASQGISTGWVEANGTSTYRPALAVNRDAMAAFMYRLAGSPAYTPPGTSPFIDVTPQTQFYKEIAWLASKGISTGWDEGNGAKSYRPLQTVNRDAMAAFMYRFAGSPAYNAPGASLFTDVVPQTQFYKEINWLASMNISTGWVEGNGTRTFRPVQSVNRDAMAAFMYRYNNAFPAEGHHHHHH | not soluble
MSLGSGSGLSYNAGITQDNFLGMGSSLGLNGSRNTDSTNVNLSYTEPYFTKDGVSLGGNIFYEDYDNSARKASAAYKRKTYGASGTLGFPVDENNSYYLGLGYTHDKLRNVEREYTREKYVNSMKFPINPQNSHYDRIQSADFDLSFGWNYNNLNRGYFPTAGSSANISGKLTLPGSDNKYYQVGTNFSGYIPLNSEHKWVIATKGGLAYTNSFGGKEVPFYQLYSAGGMGSLRGFAGGSIGPKAIYYREDGFKAPSQDVIGGNAMVNASLELIIPAPFISDKYQHNVRTSVFVDAATVWNTKWKQSKADYPNLPDFGDYKRVRASAGIALQWQSPIGPLSFSYAKPIKKYAGDEIEQFQFTVGSTFEGHHHHHH | not soluble
MSLGTFRFGTSATPEGKTLLVDSKGLILDGKHIIPVMGEIHYSRVPESEWRREIRKMKAGGINIISTYIFWIHHEPEEGKWNWSGNHNLRRFVRICAEENVMLVLRLGPFCHGEVYQGGIPSWVHEKAGQNPKYKIRARTPGFLEDCTELYNTIFAQVNGLLWKDGGPVVGVQIENESRGPWDYLEALKNIAVKAGFDVPFYTRTGWPALRGKEVFGQLLPLYGDYADGFWDRKLEDMPGSYADAFIMRDKRMSSAIATETFSKEELSEDSPSLSSKLSYPYFTCELGGGMMPAYHRRININGKELKPLVICKLGSGSNLPGYYMYHGGTNPYNPLHTMGETQSSPGTNHNDLPHMTYDFQAPLGEVGQVFETPFHEGRFIHQMLTDWGSELLQMNVDSLSRHYARRGAFEFYNDYVRIKNESGTSHVTFKDYRTEGATIDWTTVEPFCKVDGLIYFIEIRGKKPQISVDGKVYTCKLNKQQKAGKLNVCVLSYEKAKTAYKIDGKLLYAKNGGILYKSDSCIVEEVWTKSPVIAATVTEVKKADAPRVVPMGRQAVAAQPVEEDFAKAAVYTINYDTSGINNYDNLFLRINYRGDVARVYADGRLVADNFWNGKEMWVRMADLVGKKVELKILPLRKDAPVYFQKEQKAMIEATKGDYMLGLDSVEVIERHTLEFNDTEGHHHHHH | soluble
MSLGTPSEPTSTLESDIFDDLSLYYLEDVFLSATTPSPTFDLSDPSDPSLSDSFDSEWSPMTPCSIERPETSTSSIFSFEARPIKTPPPAEYLRLPTFLSTNNSGFFDSVVASDFNLYGKFNDWLNDSKPRSGSFAIESAEELARNPRETRSEPEVPSLFKRREYGCGYCRSVGYMRWETHTRKKCDKLSSLAPCKICGARGEMNHTETYCPMKPSSQLFFNEDFSRDFENRRFQRSRYQFYKHSSLIQKIYASSEDSF | not soluble
MSLGVTMHDVAKAAGVSAITVSRVLNQPQQVSEQLREKVMQAVDALAYVPSRSASTLASAKSRTVLVLIPSLANTVFLETLTGIETVLDAAGYQMLIGNSHYDAGQELQLLRAYLQHRPDGVLITGLSHAEPFERILSQHALPVVYMMDLADDGRCCVGFSQEDAGAAITRHLLSRGKRRIGFLGAQLDERVMKRLDGYRAALDAADCRDAGLEWLDPQPSSMQMGADMLDRALAERPDCDALFCCNDDLAIGALARSQQLGIAVPERLAIAGFNDLQPAAWCTPPLTTVATPRRDIGVHAAKALLQLIDGEEPASRRADLGFRLMLRRSSEGHHHHHH | soluble
MSLHELKAAAFPQTTEKISPNWESGINVDLAISTRQYHMQQLFYRYGENNSLSVEGFRKLLQNIGIDKIKRIHIHHDHDHHSDHEHHSDHERHSDHEHHSDHEHHSDHNHAASGKNKRKALCPDHDSDSSGKDPRNSQGKGAHRPEHASGRRNVKDSVSASEVTSTVYNTVSEGTHFLETIETPRPGKLFPKDVSSSTPPSVTSKSRVSRLAGRKTNESVSEPRKGFMYSRNTNENPQECFNASKLLTSHGMGIQVPLNATEFNYLCPAIINQIDARSCLIHTSEKEGHHHHHH | not soluble
MSLHGNSEMQKINQTSAMPEKTDVHWSGRFSVAPMLDWTDRHCRYFLRLLSRNTLLYTEMVTTGAIIHGKGDYLAYSEEEHPVALQLGGSDPAALAQCAKLAEARGYDEINLNVGCPSDRVQNGMFGACLMGNAQLVADCVKAMRDVVSIPVTVKTRIGIDDQDSYEFLCDFINTVSGKGECEMFIIHARKAWLSGLSPKENREIPPLDYPRVYQLKRDFPHLTMSINGGIKSLEEAKAHLQHMDGVMVGREAYQNPGILAAVDREIFGSSDTDADPVAVVRAMYPYIERELSQGTYLGHITRHMLGLFQGIPGARQWRRYLSENAHKAGADINVLEHALKLVADKREGHHHHHH | soluble
MSLHLALLMRGGDPHCILDFGAGNGELCKLIALQFCYEPTPSLMAEAKENLADLPQISFCSDLEKISDGSVELIFCLEVFEHLPEKETKDALGQFDRLLTDNGNAVIGVPVEIGIPALYKGIFRMSRRFNTFDASIKNVLLAALSFPPKDRPVSEITPGFAFHHEHMGFDYRKLQALLHAQFGLQQVTTSPFSIFGPWLNPEVNFLIQKANPAVNADAAR | not soluble
MSLHLKVFAKPKITYVENQTAMELEEQVTLTCEASGDPIPSITWRTSTRNISSEEKASWTRPEKQETLDGHMVVRSHARVSSLTLKSIQYTDAGEYVCTASNTIGQDSQSMYLEVQYAPKLQGPVAVYTWEGNQVNITCEVFAYPSATISWFRDGQLLPSSNYSNIKIYNTPSASYLEVTPDSENDFGNYNCTAVNRIGQESLEFVLVQADTPSSPSIDQVEPYSSTAQVQFDEPEATGGVPILKYKAEWRAMGEEVWHSKWYDAKEASMEGIVTIVGLKPETTYAVRLAALNGKGLGEISAASEFKTQPVREPSAEGHHHHHH | not soluble
MSLHPVQHSAREQVNAQVLSAASQKIESLAQQRQWHDYRYTFKVYISSQIATAAPCATTPGVTLTSPVDIALNRMNFTVSCPQSWQMNVAVRPDVLVPVVMAKSLVARDTPLTANDVELKPYNVSAQRREVLMELDDAIGLSSKHALQPGKPITKEELVSPVLVGRDQPVMIVYQSAGITASMPGVALKNGRKGEMVKVRNASSQRVISAMVAESGVVTTVGAEEGHHHHHH | soluble
MSLHSPGKAFRAALTKENPLQIVGTINANHALLAQRAGYQAIYLSGGGVAAGSLGLPDLGISTLDDVLTDIRRITDVCSLPLLVDADIGFGSSAFNVARTVKSMIKAGAAGLHIEDQVGAKRCGHRPNKAIVSKEEMVDRIRAAVDAKTDPDFVIMARTDALAVEGLDAAIERAQAYVEAGAEMLFPEAITELAMYRQFADAVQVPILANITEFGATPLFTTDELRSAHVAMALYPLSAFRAMNRAAEHVYNVLRQEGTQKSVIDTMQTRNELYESINYYQYEEKLDNLFARSQVK | soluble
